In PMC9555727 (Chemical Science, 2022):
Where “and” joins values, the source holds several entries; their conditions need not be identical. Identical values can stand only once. Like-named read-outs stand apart in the source and are kept apart here.

Legend:
[1] = molecular target: Can (E. coli BL21 (DE3)); test: not stated; summary of the solution experiments on the 17 proteins (native MS, MP, SEC, SAXS); which method gave the stated form is not given; details in Table S2, Fig. 5A and Fig. 6
[2] = molecular target: FabG (3-oxoacyl-[acyl-carrier-protein] reductase) from E. coli-DE3 (E. coli BL21 (DE3)); test: non-reducing SDS-PAGE; 10 μg protein without β-mercaptoethanol, heated, 4-20% gel, Coomassie stain; shows inter-protein disulfide bridges
[3] = molecular target: FabG (3-oxoacyl-[acyl-carrier-protein] reductase) from E. coli-DE3 (E. coli BL21 (DE3)); test: SEC; 30 μg protein on Superdex 200 Increase 10/300 GL in PBS pH 7.4; MM from a standard curve of elution volumes
[4] = molecular target: FabG (3-oxoacyl-[acyl-carrier-protein] reductase) from E. coli-DE3 (E. coli BL21 (DE3)); test: SAXS; EMBL P12 beamline, 20 °C, four concentrations between about 10 and 90 μM; MM from I(0) and equilibrium fit with OLIGOMER on PDB structures
[5] = molecular target: FabG (3-oxoacyl-[acyl-carrier-protein] reductase) from E. coli-DE3 (E. coli BL21 (DE3)); test: as above; remark: listed apart in the source
[6] = molecular target: FabG (3-oxoacyl-[acyl-carrier-protein] reductase) from E. coli-DE3 (E. coli BL21 (DE3)); test: mass photometry; protein stocks diluted in PBS pH 7.4 to nanomolar concentrations (~100 nM) immediately before measurement; detection threshold ~40 kDa
[7] = molecular target: FabG (3-oxoacyl-[acyl-carrier-protein] reductase) from E. coli-DE3 (E. coli BL21 (DE3)); test: native MS; as a1, FabG^DE3 in the presence of DTT; 2.5-40 μM
[8] = molecular target: FabG (3-oxoacyl-[acyl-carrier-protein] reductase) from E. coli-DE3 (E. coli BL21 (DE3)); test: native MS; online buffer exchange MS; proteins diluted in 50 mM HEPES, 50 mM NaCl pH 7.4 (FabG: 25 mM tricine, 50 mM NaCl pH 8.5), overnight at 4 °C, exchanged online to 200 mM ammonium acetate pH 6.8; range of concentrations 40-0.15 μM before dilution; DeoC: apparent affinity, dimer to monomers, fit of eqn (1)
[9] = molecular target: IspD (E. coli BL21 (DE3)); test: not stated; summary of the solution experiments on the 17 proteins (native MS, MP, SEC, SAXS); which method gave the stated form is not given; details in Table S2, Fig. 5A and Fig. 6
[10] = molecular target: NadK (E. coli BL21 (DE3)); test: SEC; 30 μg protein on Superdex 200 Increase 10/300 GL in PBS pH 7.4; MM from a standard curve of elution volumes
[11] = molecular target: NadK (E. coli BL21 (DE3)); test: SAXS; EMBL P12 beamline, 20 °C, four concentrations between about 10 and 90 μM; MM from I(0) and equilibrium fit with OLIGOMER on PDB structures
[12] = molecular target: NadK (E. coli BL21 (DE3)); test: native MS; online buffer exchange MS; proteins diluted in 50 mM HEPES, 50 mM NaCl pH 7.4 (FabG: 25 mM tricine, 50 mM NaCl pH 8.5), overnight at 4 °C, exchanged online to 200 mM ammonium acetate pH 6.8; range of concentrations 40-0.15 μM before dilution; DeoC: apparent affinity, dimer to monomers, fit of eqn (1)
[13] = molecular target: SpeB (E. coli BL21 (DE3)); test: not stated; summary of the solution experiments on the 17 proteins (native MS, MP, SEC, SAXS); which method gave the stated form is not given; details in Table S2, Fig. 5A and Fig. 6
[14] = molecular target: Superoxide dismutase (SodA) (E. coli BL21 (DE3)); test: SEC; 30 μg protein on Superdex 200 Increase 10/300 GL in PBS pH 7.4; MM from a standard curve of elution volumes
[15] = molecular target: Superoxide dismutase (SodA) (E. coli BL21 (DE3)); test: SAXS; EMBL P12 beamline, 20 °C, four concentrations between about 10 and 90 μM; MM from I(0) and equilibrium fit with OLIGOMER on PDB structures
[16] = molecular target: Superoxide dismutase (SodA) (E. coli BL21 (DE3)); test: mass photometry; protein stocks diluted in PBS pH 7.4 to nanomolar concentrations (~100 nM) immediately before measurement; detection threshold ~40 kDa
[17] = molecular target: Superoxide dismutase (SodA) (E. coli BL21 (DE3)); test: native MS; online buffer exchange MS; proteins diluted in 50 mM HEPES, 50 mM NaCl pH 7.4 (FabG: 25 mM tricine, 50 mM NaCl pH 8.5), overnight at 4 °C, exchanged online to 200 mM ammonium acetate pH 6.8; range of concentrations 40-0.15 μM before dilution; DeoC: apparent affinity, dimer to monomers, fit of eqn (1)
[18] = molecular target: Upp (E. coli BL21 (DE3)); test: not stated; summary of the solution experiments on the 17 proteins (native MS, MP, SEC, SAXS); which method gave the stated form is not given; details in Table S2, Fig. 5A and Fig. 6
[19] = molecular target: Upp (E. coli BL21 (DE3)); test: mass photometry; protein stocks diluted in PBS pH 7.4 to nanomolar concentrations (~100 nM) immediately before measurement; detection threshold ~40 kDa
[20] = molecular target: the molecule itself; test: SEC; 30 μg protein on Superdex 200 Increase 10/300 GL in PBS pH 7.4; MM from a standard curve of elution volumes
[21] = molecular target: the molecule itself; test: native MS; online buffer exchange MS; proteins diluted in 50 mM HEPES, 50 mM NaCl pH 7.4 (FabG: 25 mM tricine, 50 mM NaCl pH 8.5), overnight at 4 °C, exchanged online to 200 mM ammonium acetate pH 6.8; range of concentrations 40-0.15 μM before dilution; DeoC: apparent affinity, dimer to monomers, fit of eqn (1)

Work on Can (enzyme) yielded a stoichiometry N [1] of 4.

In the case of “FabG (3-oxoacyl-[acyl-carrier-protein] reductase) from E. coli-DE3 (enzyme)”, the percent in an inter-protein disulfide bonded dimer [2] is reported as 50%, the stoichiometry N [3] is reported as 4 and 2 and the SAXS MM from I(0) divided by the monomer's mass [4] is reported as 3.7. For the same molecule, the SAXS MM from I(0) divided by the monomer's mass [5] was 3.5, the stoichiometry N [5] was 6 and 2 and 4 and the stoichiometry N [6] was 2 and 4 and 6. For the same molecule, the stoichiometry N [7] was 2 and 4 and the stoichiometry N [8] was 6.

In the case of IspD (enzyme), the stoichiometry N [9] is reported as 2 and 4.

NadK (enzyme) showed a stoichiometry N [10] of 2.7, a subunit average from SAXS I(0) at 8 μM [11] of 2.37 and a subunit average from SAXS I(0) at 61 μM [11] of 2.67. The percent dimer at ∼1 μM [12] was 56%, the percent dimer at ∼40 μM [12] was 23% and the percent monomer at ∼1 μM [12] was 12%. For the same molecule, the percent monomer at ∼40 μM [12] was 2%, the percent tetramer at ∼1 μM [12] was 32% and the percent tetramer at ∼40 μM [12] was 75%. For the same molecule, the stoichiometry N [12] was 2 and 4.

Molecule SpeB (enzyme) has a stoichiometry N [13] of 6.

In the case of Superoxide dismutase (SodA) (enzyme), the stoichiometry N [14] is reported as 2, the stoichiometry N [15] is reported as 2 and the stoichiometry N [16] is reported as 2. The stoichiometry N [17] was 2.

Upp (enzyme) was tested, and the stoichiometry N [18] was 2 and 4 and 6 and the stoichiometry N [19] was 2.

B1: FabG (3-oxoacyl-[acyl-carrier-protein] reductase) from E. coli-K12 (enzyme, E. coli K12)
chain: MNFEGKIALVTGASRGIGRAIAETLAARGAKVIGTATSENGAQAISDYLGANGKGLMLNVTDPASIESVLEKIRAEFGEVDILVNNAGITRDNLLMRMKDEEWNDIIETNLSSVFRLSKAVMRAMMKKRHGRIITIGSVVGTMGNGGQANYAAAKAGLIGFSKSLAREVASRGITVNVVAPGFIETDMTRALSDDQRAGILAQVPAGRLGGAQEIANAVAFLASDEAAYITGETLHVNGGMYMV
notes: FabG, 3-oxoacyl-[acyl-carrier-protein] reductase of E. coli K12, Arg at position 167; probably the same vector, cleaved His-bdSumo tag and added N-terminal alanine as for the other proteins; also called FabG^K12; source: E. coli, purified
With B1 the “stoichiometry N” value [20] was 2 and the “stoichiometry N” value [21] was 4.
